# Source: patent publication US20090162366A1
# Biological target: M2G peptide conjugated with BSA (influenza A virus, A/Puerto Rico/8/34 (H1N1))
# Test: peptide-BSA ELISA (++ EC50<10^-9M; + 10^-9M<EC50<10^-8M)
substance,measurement,value
mouse anti-M2 antibody 14C2,EC50,< 1 nM
